Assay [1] addresses H5 virus strains (thirty-four strains of H5N1 viruses). In words: cell-based or functional assay.
Assay [2] addresses 7aa peptide 8H5A (HGMLPVY). The assay can be described thus: phage ELISA: mAb coated at 5 ug/ml, phage 1:1000, anti-M13/HRP. On the technique in general: In an ELISA, binding on a coated surface is turned into a signal by an enzyme label.
Assay [3] addresses 7aa peptide 8H5E (NSGPWLT). The description is as above.
In assay [4] the target is hemagglutinin of subtype H5 avian influenza virus (strain not stated) (avian influenza virus subtype H5).
In assay [5] the target is HA of H5N1 virus strain A2 (avian influenza virus H5N1). The assay can be described thus: cell-based or functional assay.
Assay [6] concerns the target HA of H5N1 virus strain A3 (avian influenza virus H5N1). The assay can be described thus: cell-based or functional assay.
The target of assay [7] is HA of H5N1 virus strain F2 (avian influenza virus H5N1). The assay can be described thus: cell-based or functional assay.
Assay [8] deals with HA of H5N1 virus strain F3 (avian influenza virus H5N1). In words: cell-based or functional assay.
The target in assay [9] is HA of H5N1 virus strain E1 (avian influenza virus H5N1). The assay can be described thus: cell-based or functional assay.
The target of assay [10] is HA of H5N1 virus strain C3 (avian influenza virus H5N1). The assay can be described thus: cell-based or functional assay.
Assay [11] has as its target HA of H5N1 virus strain B1 (avian influenza virus H5N1). The assay can be described thus: cell-based or functional assay.
Assay [12] has as its target HA of H5N1 virus strain B5 (avian influenza virus H5N1). The assay can be described thus: cell-based or functional assay.
Assay [13] addresses HA of H5N1 virus strain B7 (avian influenza virus H5N1). In words: cell-based or functional assay.
The target in assay [14] is HA of H5N1 virus strain H2 (avian influenza virus H5N1). In words: cell-based or functional assay.
Assay [15] concerns the target HA of H5N1 virus strain B6 (avian influenza virus H5N1). In words: cell-based or functional assay.
Assay [16] has as its target HA of H5N1 virus strain D1 (avian influenza virus H5N1). The assay can be described thus: cell-based or functional assay.
The target of assay [17] is HA of H5N1 virus strain A7 (avian influenza virus H5N1). The assay can be described thus: cell-based or functional assay.
The target of assay [18] is HA of H5N1 virus strain B3 (avian influenza virus H5N1). In words: cell-based or functional assay.
The target in assay [19] is HA of H5N1 virus strain B2 (avian influenza virus H5N1). The assay can be described thus: cell-based or functional assay.
For assay [20], the target named is HA of H5N1 virus strain C2 (avian influenza virus H5N1). The assay can be described thus: cell-based or functional assay.
Assay [21] addresses HA of H5N1 virus strain B4 (avian influenza virus H5N1). The assay can be described thus: cell-based or functional assay.
For assay [22], the target named is HA of H5N1 virus strain E2 (avian influenza virus H5N1). In words: cell-based or functional assay.
Assay [23] has as its target HA of H5N1 virus strain A8 (avian influenza virus H5N1). In words: cell-based or functional assay.
In assay [24] the target is HA of H5N1 virus strain A6 (avian influenza virus H5N1). The assay can be described thus: cell-based or functional assay.
Assay [25] addresses HA of H5N1 virus strain D2 (avian influenza virus H5N1). The assay can be described thus: cell-based or functional assay.
In assay [26] the target is HA of H5N1 virus strain A1 (avian influenza virus H5N1). The assay can be described thus: cell-based or functional assay.
Assay [27] has as its target HA of H5N1 virus strain G1 (avian influenza virus H5N1). The assay can be described thus: cell-based or functional assay.
Assay [28] deals with HA of H5N1 virus strain A5 (avian influenza virus H5N1). The assay can be described thus: cell-based or functional assay.
The target in assay [29] is HA of H5N1 virus strain H1 (avian influenza virus H5N1). The assay can be described thus: cell-based or functional assay.
Assay [30] concerns the target HA of H5N1 virus strain B8 (avian influenza virus H5N1). The assay can be described thus: cell-based or functional assay.

B1: monoclonal antibody 8H5 (antibody, V domains shown)
VH: QVQLQQSGAELMKPGASVKISCKATGYTFSNYWIEWIKQRPGHGLEWIGEILPGSDRTNYNGKFKGKATFTADTSSNTAHMQLSSLTSEDSAVYYCANRYDGYYFGLDYWGQGTSVAVSSA
VL: EIVLTQSPAIMSASLGEKVTMSCRASSSVNFVYWYQQRSDASPKLLIYYSSNLAPGVPPRFSGSGSGNSYSLTISGLEGEDAATYYCQHFTSSPYTFGGGTNLEIKR
In assay [1], B1 registered an HI assay: positive number/total virus number (of 34 strains) of 34. Moreover, the ELISA reading in assay [2] amounted to 0.559; in assay [3] it was 0.25.

B2: 8H5 single chain antibody (scFv)
scFv: QVQLQQSGAELMKPGASVKISCKATGYTFSNYWIEWIKQRPGHGLEWIGEILPGSDRTNYNGKFKGKATFTADTSSNTAHMQLSSLTSEDSAVYYCANRYDGYYFGLDYWGQGTSVAVSSAGGGGSEIVLTQSPAIMSASLGEKVTMSCRASSSVNFVYWYQQRSDASPKLLIYYSSNLAPGVPPRFSGSGSGNSYSLTISGLEGEDAATYYCQHFTSSPYTFGGGTNLEIKR
Regarding B2, in assay [4], the average value of the testing wells (ELISA reading) is 0.597. Besides, the HI titer (n) (n (dilution 2^n)) came out at 4.5 in assay [5]; 3.5 in [6]; 0 in assay [7]; 0 in assay [8]; 0 in assay [9]; 0 in [10]. Also, the HI titer (n) (n (dilution 2^n)) is 4 in assay [11]; 0 in assay [12]; 4 in assay [13]; 0 in assay [14]; 3.5 in [15]; 2.5 in [16]. The HI titer (n) (n (dilution 2^n)) in assay [17] came to 3; in [18], 5; in assay [19] it was 0; in [20], 1; in [21] it was 5; in assay [22], 0. The HI titer (n) (n (dilution 2^n)) in assay [23] turned out to be 2.5; in [24], 3; in assay [25], 2; in assay [26], 3.5; in assay [27], 0; in assay [28], 4. In addition, the results for the HI titer (n) (n (dilution 2^n)) in assay [29] and in assay [30] were 0 and 3, respectively.

(Values after patent US20090068637A1.)
